Assay results taken from paper PMC6640709, “Selection and Characterization of a Nanobody Biosensor of GTP-Bound RHO Activities” (Antibodies, 2019).

Legend:
[1] = target: 2SHA-RHOA N19 dominant negative mutant, deleted for the CAAX motif (UniProt P61586 1-189, T19N); test: SPR
[2] = target: T1, 2SHA-RHOA L63 constitutively active mutant, deleted for the CAAX motif (Homo sapiens (Human)., UniProt P61586, Q63L); test: SPR; RH57-6xHis-Myc-6xHis captured on Ni-NTA chip (250-300 RU); 2S-HA-RHOA L63 or N19 as analyte, 3.125-50 nM, single-cycle kinetics; HBS-P+ (10 mM HEPES pH 7.4, 150 mM NaCl, 0.05% P20); 1:1 Langmuir fit; BIAcore T200; settings: both partners purified
T1 construct: RHOA (Ras homologous family member A), deleted for the carboxy terminal four amino acids (CAAX motif); also called RHOA-CA; RHOA Q63L; source: E. coli BL21(DE3), purified (Strep-Tactin); not shown: 2x-Strep-tag, N-terminal, kept; HA, N-terminal, kept

[3] = target: T2, 2SHA-RHOA wild type, deleted for the CAAX motif (Homo sapiens (Human)., UniProt P61586); test: SPR; RH57-6xHis-Myc-6xHis captured on Ni-NTA chip; 2S-HA-RHOA WT loaded with GTPγS as analyte, 12.5-200 nM, single-cycle kinetics; HBS-P+; 1:1 Langmuir fit; settings: both partners purified
T2 construct: RHOA (Ras homologous family member A), deleted for the carboxy terminal four amino acids (CAAX motif); the two nucleotide states are told apart by the assay; also called RHOA WT; 2S-HA-RHOA wt; source: E. coli BL21(DE3), purified (Strep-Tactin), loaded with GTPγS or GDP; not shown: 2x-Strep-tag, N-terminal, kept; HA, N-terminal, kept

endogenous RHOC = target: T3, endogenous RHOC (Homo sapiens (Human)., UniProt P08134); test: co-IP; RH57-6xHis-Myc expressed in HeLa; fresh, non-loaded lysate; intracellular antibody captured on His-tag Ni-NTA resin; endogenous RHO proteins blotted; settings: partners not purified
T3 construct: RHOC, endogenous in HeLa cells; also called RHOA/B/C proteins; source: endogenous, HeLa lysate

endogenous RHOB = target: T4, endogenous RHOB (Homo sapiens (Human)., UniProt P62745); test: as above; settings: partners not purified
T4 construct: RHOB (RAS homologous family member B), endogenous in HeLa cells; also called RHOA/B/C proteins; source: endogenous, HeLa lysate
T4 sequence (P62745 whole entry): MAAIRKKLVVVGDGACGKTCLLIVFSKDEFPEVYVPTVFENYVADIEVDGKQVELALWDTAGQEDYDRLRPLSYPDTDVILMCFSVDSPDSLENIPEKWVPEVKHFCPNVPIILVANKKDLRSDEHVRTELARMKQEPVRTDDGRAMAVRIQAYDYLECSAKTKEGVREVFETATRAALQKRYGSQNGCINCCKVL

T1 sequence (P61586 1-189 Q63L): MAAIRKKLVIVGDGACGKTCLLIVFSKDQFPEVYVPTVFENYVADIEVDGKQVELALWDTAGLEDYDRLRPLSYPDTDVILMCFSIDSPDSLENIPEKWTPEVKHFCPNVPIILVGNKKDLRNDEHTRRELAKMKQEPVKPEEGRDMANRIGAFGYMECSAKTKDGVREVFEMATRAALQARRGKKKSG
T2 sequence (P61586 1-189, stated change not applied): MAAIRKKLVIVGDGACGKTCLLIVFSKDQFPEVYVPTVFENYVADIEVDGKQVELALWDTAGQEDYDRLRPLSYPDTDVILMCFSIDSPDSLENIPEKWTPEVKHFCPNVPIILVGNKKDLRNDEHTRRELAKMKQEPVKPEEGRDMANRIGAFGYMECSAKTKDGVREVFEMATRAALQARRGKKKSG
Chain of 2SHA-RHOA N19 dominant negative mutant, deleted for the CAAX motif (P61586 1-189 T19N): as the sequence (P61586 1-189 Q63L) above, with T19N, L63Q counted along it
T3 sequence (P08134 whole entry): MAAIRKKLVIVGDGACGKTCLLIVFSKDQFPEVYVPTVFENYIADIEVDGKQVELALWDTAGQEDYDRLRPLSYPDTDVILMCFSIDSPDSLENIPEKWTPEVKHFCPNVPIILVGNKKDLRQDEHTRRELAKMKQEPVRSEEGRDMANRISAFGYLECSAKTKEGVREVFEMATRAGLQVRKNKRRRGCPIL

B1: RH57 hs2dAb fused at its carboxy terminal end with 6xHis-Myc-6xHis tag (VHH)
VHH: EVQLQASGGGFVQPGGSLRLSCAASGDTWWSSAMGWFRQAPGKEREFVSAISFYPTEYTYYADSVKGRFTISRDNSKNTVYLQMNSLRAEDTATYYCAWIAWGPWMRTSWYWGQGTQVTVSS
notes: humanized synthetic single domain antibody from the NaLi-H1 phage display library; also called RH57-6xhis-myc-6xhis; RH57 nanobody; source: E. coli XL1BLUE periplasm, purified (His-tag purification beads); not shown: 6xHis, C-terminal, kept; Myc, C-terminal, kept
Work on B1 yielded a Kd [1] of 2410 nM, a Kd [2] of 28 nM and a Kd [3] of 60.5 nM.

B2: RH57 intracellular antibody with carboxy-terminal 6xHis tag followed by Myc tag (VHH)
VHH: B1 VHH
notes: as the VHH of m1; also called hs2dAb RH57 with a 6xhis and carboxy Myc tag; source: HeLa, transiently transfected, in lysate; not shown: 6xHis, C-terminal, kept; Myc, C-terminal, kept
B2: binds (endogenous RHOC); binds (endogenous RHOB).
